Assay results from patent US11168306B2, “Phage wrapping” (priority 2014, dated 2021).
Ends that are not written are not given here.

Assays:
[1] = molecular target: PSMA (Homo sapiens, UniProt Q04609); assay: Electrochemical impedance biosensing with virus-PEDOT films; format: binding; details: PBF-TWEEN
Procedure: Biosensing with Virus-PEDOT Films. To explore whether these wrapped virus particles could be exploited to create virus-electrode biosensors with a higher sensitivity for PSMA, films of PEDOT were prepared on gold electrodes by electropolymerization in the presence of phage-2 (FIG. 28). […] SEM imaging confirms incorporation of phage into the bioaffinity matrix; both filament-like and less extended features having dimensions consistent with phage integrated as rope-like bundles into the polymer at various angles to the film (FIGS. 4B-4C) were observed. The KCS-1 wrapper was then applied in vitro simply by exposing the resultant phage-2 film for a short time to an aqueous solution of the wrapper. For the biosensing measurements, only the highest affinity ligand combination of phage-2 wrapped with KCS-1 was used, and it was studied in comparison to phage-2 films.
EIS To Quantify PSMA Binding. […] The real component of the impedance, R, in particular, increases upon PSMA binding. […] The films incorporating phage-2 wrapped with KCS-1 provide higher sensitivity for PSMA detection than films incorporating unwrapped phage-2 (FIG. 4F). For example, the relative impedance change, ΔR/Ro, at each concentration of PSMA is 3-fold higher. […]

[2] = molecular target: PSMA dimer (Homo sapiens, UniProt Q04609); assay: Phage-based ELISA, binding to PSMA dimer
Procedure: In a phage-based ELISA, specific wells of a 96-well microtiter plate (Nunc Maxisorp) were coated with 100 μL/well of a solution of PSMA (5.56 or 11.1 nM) monomer or dimer protein diluted in PBS. The plate was incubated for 1 h on a shaker at room temperature. The coating solution was removed, and the wells were blocked with 320 μL/well of 0.2% w/v solution of BSA in PBS for 30 min, and washed three times with 300 μL/well of wash buffer PT (0.05% TWEEN-20 in PBS). […] The wells on the ELISA plate were then incubated with the phage samples (100 μL/well) for 1 h. The wells were washed five times with PT and then incubated with horseradish-peroxidase-conjugated anti-M13 antibody (100 μL/well, 1:5000 dilution in PBT) for 30 min. The wells were washed three times with PT, and two times with PBS. […] Following an appropriate incubation time, HRP activity was measured spectrophotometrically at 450 nm using a microtiter plate reader (Bio-Tek).
Phage-based wrapping ELISA: Phage (5 nM in 225 μL) and 2 μL of the purified cycloaddition reaction product, KCS-1/2 (308.7 μM) in water: acetonitrile (60:40), were mixed and serially diluted in PBT. […] Levels of phage binding were quantified as described above.

[3] = Solubility in water; format: physicochemical; details: previous studies

Chain of PSMA dimer (Q04609 44-750 limits assumed): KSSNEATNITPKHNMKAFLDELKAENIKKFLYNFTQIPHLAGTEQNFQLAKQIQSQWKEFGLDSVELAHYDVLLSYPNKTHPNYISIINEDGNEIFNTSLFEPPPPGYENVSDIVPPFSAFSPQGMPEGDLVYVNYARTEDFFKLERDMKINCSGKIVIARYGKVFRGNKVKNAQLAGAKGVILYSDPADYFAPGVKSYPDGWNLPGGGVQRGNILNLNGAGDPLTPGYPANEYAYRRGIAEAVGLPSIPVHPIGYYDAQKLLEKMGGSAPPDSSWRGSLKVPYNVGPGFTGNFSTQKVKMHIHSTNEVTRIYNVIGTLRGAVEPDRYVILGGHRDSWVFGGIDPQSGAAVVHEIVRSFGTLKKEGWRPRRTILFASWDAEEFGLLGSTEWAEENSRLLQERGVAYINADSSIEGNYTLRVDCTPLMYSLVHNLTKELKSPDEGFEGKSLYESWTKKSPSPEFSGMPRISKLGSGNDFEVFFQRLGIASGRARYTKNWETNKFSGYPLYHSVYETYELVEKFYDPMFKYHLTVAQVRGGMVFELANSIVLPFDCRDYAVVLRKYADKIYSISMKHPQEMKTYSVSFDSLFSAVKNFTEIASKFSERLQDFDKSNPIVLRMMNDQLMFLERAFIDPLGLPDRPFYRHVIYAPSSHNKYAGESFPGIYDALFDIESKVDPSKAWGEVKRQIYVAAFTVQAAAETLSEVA
Chain of PSMA (Q04609 44-750): as the sequence (Q04609 44-750 limits assumed) above

Substance	binding to PSMA by PEDOT film (negative controls) [1]	increase in apparent affinity to PSMA versus other wrapper concentrations ([2]; 2.7 μM KCS-1, FIG. 7)	solubility in water [3]	relative binding affinity to PSMA dimer ([2]; phage-based ELISA)
KCS-1: chemically synthesized wrapper: K14 oligolysine click-linked to PSMA ligand 1 (peptide 1 KKKKKKKKKKKKKK; peptide 2 KKKCALCEFLG; cysteine pairing not given here; also: K14 oligolysine click-linked to PSMA ligand 1)	no significant binding to PSMA	~15%	–	–
peptide 1: PSMA-binding peptide ligand, amino acid sequence CALCEFLG (SEQ ID NO: 1)	–	–	limited solubility in water	much lower apparent affinity for PSMA than peptide 2
